Test results as given in PMC10693601.
Where “and” joins values, the source holds several entries; their conditions need not be identical. Equal entries are not always repeated.

Target: AIM2 (Absent In Melanoma 2), full length, without MBP tag, labeled with Alexa Fluor 488 (human) (UniProt O14862)
Assay: single-molecule confocal fluorescence microscopy with optical tweezers; Alexa 488-labeled protein (~0.2-14 nM) in the protein channel, on a single biotinylated lambda-phage dsDNA (48.5 kbp) tethered between two optically trapped streptavidin beads; 2D scans, movies and kymographs; oligomer size from photon counts (11 per fluorophore); 20 mM HEPES pH 7.5, 160 mM KCl, 1 mM BME, 0.1% Triton X-100, 5% glycerol; room temperature

oligomer growth rate (highest observed): < 28 molecules/s
oligomer growth rate (oligomers of 1-20 molecules, low nanomolar): 0.2 to 7 molecules/s
oligomer growth rate at 0.5 nM AIM2: 7.4 s⁻¹
oligomer growth rate at 1 nM AIM2 (bottom kymograph, dimer to hexamer): 94 s⁻¹
oligomer growth rate at 1 nM AIM2 (middle kymograph, starting from a monomer): 5.8 s⁻¹
oligomer growth rate at 2 nM AIM2: 10.7 s⁻¹
oligomer growth rate at 2 nM AIM2 (4 to 6 molecules): 11.4 s⁻¹
oligomer growth rate at 10 nM AIM2 (4 to 11 molecules): 25.3 s⁻¹
oligomer growth rate at 10 nM AIM2 (top kymograph): 302 s⁻¹
oligomer growth rate at 13.5 nM AIM2: 34 s⁻¹
Substance: AIM2 (Absent In Melanoma 2), full length, without MBP tag, labeled with Alexa Fluor 488 (from UniProt O14862 1-343) (natural protein)
stoichiometry N: < 25 molecules and 13 molecules to 15 molecules (2×)
